Assays:
HeLa Kyoto [1] = experiment: solubility in G1/S (NP-40 vs SDS abundance) (log2 ratio); higher = more soluble; conditions: cell cycle stage: G1/S
HeLa Kyoto [2] = experiment: solubility change mitosis vs G1/S (difference of NP-40 vs SDS log2 ratios) (log2 ratio difference); higher = more soluble in mitosis
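Wherever solubility change mitosis vs G1/S (difference of NP-40 vs SDS log2 ratios) is given: synchronized HeLa Kyoto cells (double thymidine block for G1/S, nocodazole release for mitosis), protein amounts in NP-40 versus SDS lysates quantified by mass spectrometry, three biological replicates.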
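Wherever solubility in G1/S (NP-40 vs SDS abundance) is given: HeLa Kyoto cells arrested at G1/S by double thymidine block, proteins quantified by TMT10plex mass spectrometry in mild NP-40 versus SDS extracts, three biological replicates.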

Sequence | solubility in G1/S (log2) (HeLa Kyoto [1]) | solubility change mitosis (log2) (HeLa Kyoto [2])
MSSEESYRAILRYLTNEREPYAPGTEGNVKRKIRKAAACYVVRGGTLYYQRRQRHRKTFAELEVVLQPERRRDLIEAAHLGPGGTHHTRHQTWHYLSKTYWWRGILKQVKDYIKQCSKCQEKLDRSRPISDVSEMLEELGLDLESGEESNESEDDLSNFTSSPTTASKPAKKKPVSKHELVFVDTKGVVKRSSPKHCQAVLKQLNEQRLSNQFCDVTLLIEGEEYKAHKSVLSANSEYFRDLFIEKGAVSSHEAVVDLSGFCKASFLPLLEFAYTSVLSFDFCSMADVAILARHLFMSEVLEICESVHKLMEEKQLTVYKKGEVQTVASTQDLRVQNGGTAPPVASSEGTTTSLPTELGDCEIVLLVNGELPEAEQNGEVGRQPEPQVSSEAESALSSVGCIADSHPEMESVDLITKNNQTELETSNNRENNTVSNIHPKLSKENVISSSPEDSGMGNDISAEDICAEDIPKHRQKVDQPLKDQENLVASTAKTDFGPDDDTYRSRLRQRSVNEGAYIRLHKGMEKKLQKRKAVPKSAVQQVAQKLVQRGKKMKQPKRDAKENTEEASHKCGECGMVFQRRYALIMHKLKHERARDYKCPLCKKQFQYSASLRAHLIRHTRKDAPSSSSSNSTSNEASGTSSEKGRTKREFICSICGRTLPKLYSLRIHMLKHTGVKPHACQVCGKTFIYKHGLKLHQSLHQSQKQFQCELCVKSFVTKRSLQEHMSIHTGESKYLCSVCGKSFHRGSGLSKHFKKHQPKPEVRGYHCTQCEKSFFEARDLRQHMNKHLGVKPFQCQFCDKCYSWKKDWYSHVKSHSVTEPYRCNICGKEFYEKALFRRHVKKATHGKKGRAKQNLERVCEKCGRKFTQLREYRRHMNNHEGVKPFECLTCGVAWADARSLKRHVRTHTGERPYVCPVCSEAYIDARTLRKHMTKFHRDYVPCKIMLEKDTLQFHNQGTQVAHAVSILTAGMQEQESSGPQELETVVVTGETMEALEAVAATEEYPSVSTLSDQSIMQVVNYVLAQQQGQKLSEVAEAIQTVKVEVAHISGGE [ZBTB11] | -0.621 | 0.267
MSSGLWSQEKVTSPYWEERIFYLLLQECSVTDKQTQKLLKVPKGSIGQYIQDRSVGHSRIPSAKGKKNQIGLKILEQPHAVLFVDEKDVVEINEKFTELLLAITNCEERFSLFKNRNRLSKGLQIDVGCPVKVQLRSGEEKFPGVVRFRGPLLAERTVSGIFFGVELLEEGRGQGFTDGVYQGKQLFQCDEDCGVFVALDKLELIEDDDTALESDYAGPGDTMQVELPPLEINSRVSLKVGETIESGTVIFCDVLPGKESLGYFVGVDMDNPIGNWDGRFDGVQLCSFACVESTILLHINDIIPALSESVTQERRPPKLAFMSRGVGDKGSSSHNKPKATGSTSDPGNRNRSELFYTLNGSSVDSQPQSKSKNTWYIDEVAEDPAKSLTEISTDFDRSSPPLQPPPVNSLTTENRFHSLPFSLTKMPNTNGSIGHSPLSLSAQSVMEELNTAPVQESPPLAMPPGNSHGLEVGSLAEVKENPPFYGVIRWIGQPPGLNEVLAGLELEDECAGCTDGTFRGTRYFTCALKKALFVKLKSCRPDSRFASLQPVSNQIERCNSLAFGGYLSEVVEENTPPKMEKEGLEIMIGKKKGIQGHYNSCYLDSTLFCLFAFSSVLDTVLLRPKEKNDVEYYSETQELLRTEIVNPLRIYGYVCATKIMKLRKILEKVEAASGFTSEEKDPEEFLNILFHHILRVEPLLKIRSAGQKVQDCYFYQIFMEKNEKVGVPTIQQLLEWSFINSNLKFAEAPSCLIIQMPRFGKDFKLFKKIFPSLELNITDLLEDTPRQCRICGGLAMYECRECYDDPDISAGKIKQFCKTCNTQVHLHPKRLNHKYNPVSLPKDLPDWDWRHGCIPCQNMELFAVLCIETSHYVAFVKYGKDDSAWLFFDSMADRDGGQNGFNIPQVTPCPEVGEYLKMSLEDLHSLDSRRIQGCARRLLCDAYMCMYQSPTMSLYK | 0.0441 | -0.178
MSSIKHLVYAVIRFLREQSQMDTYTSDEQESLEVAIQCLETVFKISPEDTHLAVSQPLTEMFTSSFCKNDVLPLSNSVPEDVGKADQLKDEGNNHMKEENYAAAVDCYTQAIELDPNNAVYYCNRAAAQSKLGHYTDAIKDCEKAIAIDSKYSKAYGRMGLALTALNKFEEAVTSYQKALDLDPENDSYKSNLKIAEQKLREVSSPTGTGLSFDMASLINNPAFISMAASLMQNPQVQQLMSGMMTNAIGGPAAGVGGLTDLSSLIQAGQQFAQQIQQQNPELIEQLRNHIRSRSFSSSAEEHS [SGTB] | 0.092 | 0.321
MSSRLGAVPATSGPTTFKQQRSTRIVGAKNSRTQCSIKDNSFQYTIPHDDSLSGSSSASSCEPVSDFPASFRKSTYWMKMRRIKPAATSHVEGSGGVSAKGKRKPRQEEDEDYREFPQKKHKLYGRKQRPKTQPNPKSQARRIRKEPPVYAAGSLEEQWYLEIVDKGSVSCPTCQAVGRKTIEGLKKHMENCKQEMFTCHHCGKQLRSLAGMKYHVMANHNSLPILKAGDEIDEPSERERLRTVLKRLGKLRCMRESCSSSFTSIMGYLYHVRKCGKGAAELEKMTLKCHHCGKPYRSKAGLAYHLRSEHGPISFFPESGQPECLKEMNLESKSGGRVQRRSAKIAVYHLQELASAELAKEWPKRKVLQDLVPDDRKLKYTRPGLPTFSQEVLHKWKTDIKKYHRIQCPNQGCEAVYSSVSGLKAHLGSCTLGNFVAGKYKCLLCQKEFVSESGVKYHINSVHAEDWFVVNPTTTKSFEKLMKIKQRQQEEEKRRQQHRSRRSLRRRQQPGIELPETELSLRVGKDQRRNNEELVVSASCKEPEQEPVPAQFQKVKPPKTNHKRGRK [ZNF512] | -2.03 | 1.4
MSTFRQEDVEDHYEMGEELGSGQFAIVRKCRQKGTGKEYAAKFIKKRRLSSSRRGVSREEIEREVNILREIRHPNIITLHDIFENKTDVVLILELVSGGELFDFLAEKESLTEDEATQFLKQILDGVHYLHSKRIAHFDLKPENIMLLDKNVPNPRIKLIDFGIAHKIEAGNEFKNIFGTPEFVAPEIVNYEPLGLEADMWSIGVITYILLSGASPFLGETKQETLTNISAVNYDFDEEYFSNTSELAKDFIRRLLVKDPKRRMTIAQSLEHSWIKAIRRRNVRGEDSGRKPERRRLKTTRLKEYTIKSHSSLPPNNSYADFERFSKVLEEAAAAEEGLRELQRSRRLCHEDVEALAAIYEEKEAWYREESDSLGQDLRRLRQELLKTEALKRQAQEEAKGALLGTSGLKRRFSRLENRYEALAKQVASEMRFVQDLVRALEQEKLQGVECGLR [DAPK3] | -0.721 | -0.0326
MSTSSLRRQMKNIVHNYSEAEIKVREATSNDPWGPSSSLMSEIADLTYNVVAFSEIMSMIWKRLNDHGKNWRHVYKAMTLMEYLIKTGSERVSQQCKENMYAVQTLKDFQYVDRDGKDQGVNVREKAKQLVALLRDEDRLREERAHALKTKEKLAQTATASSAAVGSGPPPEAEQAWPQSSGEEELQLQLALAMSKEEADQPPSCGPEDDAQLQLALSLSREEHDKEERIRRGDDLRLQMAIEESKRETGGKEESSLMDLADVFTAPAPAPTTDPWGGPAPMAAAVPTAAPTSDPWGGPPVPPAADPWGGPAPTPASGDPWRPAAPAGPSVDPWGGTPAPAAGEGPTPDPWGSSDGGVPVSGPSASDPWTPAPAFSDPWGGSPAKPSTNGTTAAGGFDTEPDEFSDFDRLRTALPTSGSSAGELELLAGEVPARSPGAFDMSGVRGSLAEAVGSPPPAATPTPTPPTRKTPESFLGPNAALVDLDSLVSRPGPTPPGAKASNPFLPGGGPATGPSVTNPFQPAPPATLTLNQLRLSPVPPVPGAPPTYISPLGGGPGLPPMMPPGPPAPNTNPFLL [EPN1] | 0.197 | 0.235
MSVDPMTYEAQFFGFTPQTCMLRIYIAFQDYLFEVMQAVEQVILKKLDGIPDCDISPVQIRKCTEKFLCFMKGHFDNLFSKMEQLFLQLILRIPSNILLPEDKCKETPYSEEDFQHLQKEIEQLQEKYKTELCTKQALLAELEEQKIVQAKLKQTLTFFDELHNVGRDHGTSDFRESLVSLVQNSRKLQNIRDNVEKESKRLKIS [MIS12] | -0.177 | 0.259
MSVTEEDLCHHMKVVVRVRPENTKEKAAGFHKVVHVVDKHILVFDPKQEEVSFFHGKKTTNQNVIKKQNKDLKFVFDAVFDETSTQSEVFEHTTKPILRSFLNGYNCTVLAYGATGAGKTHTMLGSADEPGVMYLTMLHLYKCMDEIKEEKICSTAVSYLEVYNEQIRDLLVNSGPLAVREDTQKGVVVHGLTLHQPKSSEEILHLLDNGNKNRTQHPTDMNATSSRSHAVFQIYLRQQDKTASINQNVRIAKMSLIDLAGSERASTSGAKGTRFVEGTNINRSLLALGNVINALADSKRKNQHIPYRNSKLTRLLKDSLGGNCQTIMIAAVSPSSVFYDDTYNTLKYANRAKDIKSSLKSNVLNVNNHITQYVKICNEQKAEILLLKEKLKAYEEQKAFTNENDQAKLMISNPQEKEIERFQEILNCLFQNREEIRQEYLKLEMLLKENELKSFYQQQCHKQIEMMCSEDKVEKATGKRDHRLAMLKTRRSYLEKRREEELKQFDENTNWLHRVEKEMGLLSQNGHIPKELKKDLHCHHLHLQNKDLKAQIRHMMDLACLQEQQHRQTEAVLNALLPTLRKQYCTLKEAGLSNAAFESDFKEIEHLVERKKVVVWADQTAEQPKQNDLPGISVLMTFPQLGPVQPIPCCSSSGGTNLVKIPTEKRTRRKLMPSPLKGQHTLKSPPSQSVQLNDSLSKELQPIVYTPEDCRKAFQNPSTVTLMKPSSFTTSFQAISSNINSDNCLKMLCEVAIPHNRRKECGQEDLDSTFTICEDIKSSKCKLPEQESLPNDNKDILQRLDPSSFSTKHSMPVPSMVPSYMAMTTAAKRKRKLTSSTSNSSLTADVNSGFAKRVRQDNSSEKHLQENKPTMEHKRNICKINPSMVRKFGRNISKGNLR [KIF18A] | -0.624 | -0.237
MSYCRQEGKDRIIFVTKEDHETPSSAELVADDPNDPYEEHGLILPNGNINWNCPCLGGMASGPCGEQFKSAFSCFHYSTEEIKGSDCVDQFRAMQECMQKYPDLYPQEDEDEEEEREKKPAEQAEETAPIEATATKEEEGSS [CHCHD4] | -0.518 | -0.667
MSYMLPHLHNGWQVDQAILSEEDRVVVIRFGHDWDPTCMKMDEVLYSIAEKVKNFAVIYLVDITEVPDFNKMYELYDPCTVMFFFRNKHIMIDLGTGNNNKINWAMEDKQEMVDIIETVYRGARKGRGLVVSPKDYSTKYRY [TXNL4A] | -0.625 | 0.224
MTFQFNFTIEDHLENELTPIRDGALTLDSSKELSVSESQKGEERDRKCSAEQFDLPQDHLWEHKSMENAAPSQDTDSPLSAASSSRNLEPHGKQPSLRAAKEHAMPKDLKKMLENKVIETLPGFQHVKLSVVKTILLKENFPGENIVSKSFSSHSDLITGVYEGGLKIWECTFDLLAYFTKAKVKFAGKKVLDLGCGSGLLGITAFKGGSKEIHFQDYNSMVIDEVTLPNVVANSTLEDEENDVNEPDVKRCRKPKVTQLYKCRFFSGEWSEFCKLVLSSEKLFVKYDLILTSETIYNPDYYSNLHQTFLRLLSKNGRVLLASKAHYFGVGGGVHLFQKFVEERDVFKTRILKIIDEGLKRFIIEITFKFPG [METTL18] | -0.31 | 0.0132
